# Tests used:
# HLA-A*02:03 [1] = experiment: IEDB peptide-MHC binding, cellular MHC/competitive/fluorescence; ≥ and ≤ were set here for values at or beyond the usual limits of such assays
# HLA-A*68:02 [2] = experiment: IEDB peptide-MHC binding, purified MHC/competitive/radioactivity; ≥ and ≤ were set here for values at or beyond the usual limits of such assays
# HLA-A*02:02 [3] = experiment: as above
# HLA-A*02:01 [4] = experiment: as above
# HLA-A*02:06 [5] = experiment: as above
# HLA-A*68:02 [6] = experiment: IEDB peptide-MHC binding, cellular MHC/competitive/fluorescence; ≥ and ≤ were set here for values at or beyond the usual limits of such assays
# HLA-A*02:02 [7] = experiment: as above
# HLA-A*02:01 [8] = experiment: as above
# HLA-A*02:06 [9] = experiment: as above
# HLA-A*02:03 [10] = experiment: IEDB peptide-MHC binding, purified MHC/competitive/radioactivity; ≥ and ≤ were set here for values at or beyond the usual limits of such assays
# [11] = source organism: Vaccinia virus WR
# [12] = source organism: Influenza A virus
# [13] = source organism: Mammarenavirus whitewaterense
# [14] = source organism: Mammarenavirus choriomeningitidis
Sequence,IC50 (HLA-A*68:02 [6]; [11]) [µM],IC50 (HLA-A*02:02 [7]; [11]) [µM],IC50 (HLA-A*02:01 [8]; [11]) [µM],IC50 (HLA-A*02:06 [9]; [11]) [µM],IC50 (HLA-A*02:03 [10]; [11]) [µM],also measured
TIILNKIVQL,,,,,,IC50 (HLA-A*02:03 [1]; [11]): 49.3 µM; IC50 (HLA-A*68:02 [2]; [11]): 2.67 µM; IC50 (HLA-A*02:02 [3]; [11]): 1.76 µM; IC50 (HLA-A*02:01 [4]; [11]): 0.086 µM; IC50 (HLA-A*02:06 [5]; [11]): 0.03 µM
SMYTRLRQDT,≥ 70,6.56,32.9,42,1.14,
LAKSVFNSL,,,,,,IC50 (HLA-A*68:02 [6]; [12]): ≥ 70 µM; IC50 (HLA-A*02:02 [7]; [12]): 14 µM; IC50 (HLA-A*02:01 [8]; [12]): 30.9 µM; IC50 (HLA-A*02:06 [9]; [12]): 17.1 µM; IC50 (HLA-A*02:03 [10]; [12]): 3.1 µM
VCFWSTLFYV,,,,,,IC50 (HLA-A*02:03 [1]; [13]): 7.02 µM; IC50 (HLA-A*68:02 [2]; [13]): 0.525 µM; IC50 (HLA-A*02:02 [3]; [13]): 0.349 µM; IC50 (HLA-A*02:01 [4]; [13]): 0.904 µM; IC50 (HLA-A*02:06 [5]; [13]): 1.13 µM
LISSDGARVI,17.9,7.18,12.7,34.9,1.15,
LANERYRSA,≥ 70,31.3,49.1,≥ 70,0.554,
VTKRDESSI,8.1,8.05,≥ 70,38.1,2.14,
YCNYSKFWYL,,,,,,IC50 (HLA-A*02:03 [1]; [14]): 9.64 µM; IC50 (HLA-A*68:02 [2]; [14]): 0.925 µM; IC50 (HLA-A*02:02 [3]; [14]): 1.11 µM; IC50 (HLA-A*02:01 [4]; [14]): 1.71 µM; IC50 (HLA-A*02:06 [5]; [14]): 1.06 µM
ELTSNCTRTT,5.04,14.6,15.2,5.72,1.47,
ETDDDGNYPL,,,,,,IC50 (HLA-A*02:03 [1]; [11]): 28.2 µM; IC50 (HLA-A*68:02 [2]; [11]): 0.027 µM; IC50 (HLA-A*02:02 [3]; [11]): 3.59 µM; IC50 (HLA-A*02:01 [4]; [11]): 2.17 µM; IC50 (HLA-A*02:06 [5]; [11]): 1.16 µM
LMLHNPTSET,≥ 70,39.3,8.92,11.1,4.48,
EQYTCNKPYT,20.4,14,≥ 70,45.7,3.01,
FLVLIMLII,,,,,,IC50 (HLA-A*02:03 [1]; source organism: SARS-CoV1): 9.73 µM; IC50 (HLA-A*68:02 [2]; source organism: SARS-CoV1): 2.57 µM; IC50 (HLA-A*02:02 [3]; source organism: SARS-CoV1): 1.63 µM; IC50 (HLA-A*02:01 [4]; source organism: SARS-CoV1): 2.3 µM; IC50 (HLA-A*02:06 [5]; source organism: SARS-CoV1): 1.35 µM
KTKISVEKI,≥ 70,7.6,26.9,10.7,0.112,
IIELPYVGDT,≥ 70,13.7,46.8,17,4.42,
FSAVISGSV,,,,,,IC50 (HLA-A*02:03 [1]; [13]): 14.1 µM; IC50 (HLA-A*68:02 [2]; [13]): 0.0026 µM; IC50 (HLA-A*02:02 [3]; [13]): 0.048 µM; IC50 (HLA-A*02:01 [4]; [13]): 0.083 µM; IC50 (HLA-A*02:06 [5]; [13]): 0.161 µM

Sequence,IC50 (HLA-A*68:02 [6]; [11]) [µM],IC50 (HLA-A*02:02 [7]; [11]) [µM],IC50 (HLA-A*02:01 [8]; [11]) [µM],IC50 (HLA-A*02:06 [9]; [11]) [µM],IC50 (HLA-A*02:03 [10]; [11]) [µM],also measured
AAGAAVKGV,,,,,,IC50 (HLA-A*68:02 [6]; [12]): 26 µM; IC50 (HLA-A*02:02 [7]; [12]): ≥ 70 µM; IC50 (HLA-A*02:01 [8]; [12]): 56.8 µM; IC50 (HLA-A*02:06 [9]; [12]): 25.5 µM; IC50 (HLA-A*02:03 [10]; [12]): 2.3 µM
EIVSHLRAST,6.33,5.15,≥ 70,12.6,2.81,
DIKYISRDEL,,,,,,IC50 (HLA-A*02:03 [1]; [11]): 9.58 µM; IC50 (HLA-A*68:02 [2]; [11]): 0.321 µM; IC50 (HLA-A*02:02 [3]; [11]): 2.55 µM; IC50 (HLA-A*02:01 [4]; [11]): 3.57 µM; IC50 (HLA-A*02:06 [5]; [11]): 2.06 µM
QVKDNIISRT,24.2,17.8,40.9,34.3,0.421,
AAAKTPVIVV,5.25,8.04,44.3,13.4,1.52,
IAMLKSKNI,5.87,37.7,46.7,10.6,0.846,
GIIITVGML,19.6,8.67,6.56,18.4,0.349,
AIRGQYSGFV,,,,,,IC50 (HLA-A*68:02 [6]; [12]): 18.4 µM; IC50 (HLA-A*02:02 [7]; [12]): 6.28 µM; IC50 (HLA-A*02:01 [8]; [12]): 12.9 µM; IC50 (HLA-A*02:06 [9]; [12]): 42.8 µM; IC50 (HLA-A*02:03 [10]; [12]): 0.092 µM
FLKVPAQNA,,,,,,IC50 (HLA-A*68:02 [6]; [12]): 29 µM; IC50 (HLA-A*02:02 [7]; [12]): 6.66 µM; IC50 (HLA-A*02:01 [8]; [12]): 11.3 µM; IC50 (HLA-A*02:06 [9]; [12]): ≥ 70 µM; IC50 (HLA-A*02:03 [10]; [12]): 0.838 µM
IAGGVCYYLL,,,,,,IC50 (HLA-A*02:03 [1]; [11]): 14.6 µM; IC50 (HLA-A*68:02 [2]; [11]): 0.268 µM; IC50 (HLA-A*02:02 [3]; [11]): 4.58 µM; IC50 (HLA-A*02:01 [4]; [11]): 0.174 µM; IC50 (HLA-A*02:06 [5]; [11]): 0.656 µM
CAVIPFDDIV,,,,,,IC50 (HLA-A*02:03 [1]; [11]): 7.42 µM; IC50 (HLA-A*68:02 [2]; [11]): 0.137 µM; IC50 (HLA-A*02:02 [3]; [11]): 2.92 µM; IC50 (HLA-A*02:01 [4]; [11]): 1.09 µM; IC50 (HLA-A*02:06 [5]; [11]): 0.184 µM
SMTSDSKSI,8.09,8.35,34.8,56.1,2.3,
MSCDDVVFGI,,,,,,IC50 (HLA-A*02:03 [1]; [14]): 12.1 µM; IC50 (HLA-A*68:02 [2]; [14]): 0.054 µM; IC50 (HLA-A*02:02 [3]; [14]): 1.05 µM; IC50 (HLA-A*02:01 [4]; [14]): 1.01 µM; IC50 (HLA-A*02:06 [5]; [14]): 0.25 µM
RLLKNMKQCT,≥ 70,46.8,9.76,11.9,3.14,
EILRNYLRL,9.23,14,10.5,12.9,2.09,
FVKKMLPKII,14.1,11.1,32.7,6.71,1.14,
